Patent EP1724347A2 (Yale University, dated 2006)
Where no end group is shown, it is not given here.

What was measured:
[1] = target: Carbonic anhydrase II (Sigma); assay: fluorescence titration of the labeled peptide, PBS
[2] = target: T1, Human recombinant Bcl-2 (1-205), soluble GST-fusion (human, UniProt P10415 1-205); assay: change of fluorescence emission of the fluorescein-labeled peptide on titration with Bcl-2, 4°C, PBS
T1 construct: Bought from Santa Cruz Biotechnology; also called GST-Bcl-2; not shown: glutathione S-transferase (GST) fusion partner
T1 sequence (P10415 1-205): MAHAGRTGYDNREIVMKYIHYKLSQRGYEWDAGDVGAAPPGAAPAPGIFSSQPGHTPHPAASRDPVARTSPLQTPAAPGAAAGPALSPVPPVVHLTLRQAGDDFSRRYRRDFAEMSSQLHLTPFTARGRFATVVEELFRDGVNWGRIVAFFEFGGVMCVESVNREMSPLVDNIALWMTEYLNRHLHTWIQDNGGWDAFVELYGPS

Calmodulin (Sigma) = Calmodulin (Sigma) (Homo sapiens (Human), UniProt P0DP23 2-149); assay: fluorescence titration of the labeled peptide; buffer with 130 mM KCl, 1 mM CaCl2
[3] = target: T2, GST-hDM2 (residues 1-188) (human, UniProt Q00987 1-188); assay: competition with 10 nM p53AD-Flu for 400 nM GST-hDM2; fraction of p53AD-Flu bound at equilibrium
T2 construct: also called human oncoprotein double minute two; not shown: glutathione S-transferase (GST) fusion partner
T2 sequence (Q00987 1-188): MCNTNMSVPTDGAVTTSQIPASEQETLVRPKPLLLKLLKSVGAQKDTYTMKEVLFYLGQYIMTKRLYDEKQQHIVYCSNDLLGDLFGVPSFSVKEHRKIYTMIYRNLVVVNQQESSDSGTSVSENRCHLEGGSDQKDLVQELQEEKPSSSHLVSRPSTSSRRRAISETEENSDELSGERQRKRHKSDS

A Kd [1] of 22 µM, a Kd [2] of 0.363 µM and a Kd (Calmodulin (Sigma)) of 25 µM were found for GQVGRQLAIIGDDINRYC(5‑iodoacetamidofluorescein)-NH2 (also called Bak BH3 peptide; Bak 72-94) [Bak peptide, fluorescein-labeled form with additional carboxy-terminal YC] in this work.

A Ki [3] of 0.722 µM was found for GPSQPTYPGDDAPVEDLIRFKFLLQWYLLAL (designed binder, also called p3559) [pZutshi, as competitor (not labeled)] in this work.
